# In PMC10875708 (2024):
# B1: Stearoyl-CoA desaturase (SCD1) [human (endogenous in HCT116)] / Sulfotransferase family 2B member 1 (SULT2B1) [human (endogenous in HCT116)] (parent complex)
# chain 1: MPAHLLQDDISSSYTTTTTITAPPSRVLQNGGDKLETMPLYLEDDIRPDIKDDIYDPTYKDKEGPSPKVEYVWRNIILMSLLHLGALYGITLIPTCKFYTWLWGVFYYFVSALGITAGAHRLWSHRSYKARLPLRLFLIIANTMAFQNDVYEWARDHRAHHKFSETHADPHNSRRGFFFSHVGWLLVRKHPAVKEKGSTLDLSDLEAEKLVMFQRRYYKPGLLMMCFILPTLVPWYFWGETFQNSVFVATFLRYAVVLNATWLVNSAAHLFGYRPYDKNISPRENILVSLGAVGEGFHNYHHSFPYDYSASEYRWHINFTTFFIDCMAALGLAYDRKKVSKAAILARIKRTGDGNYKSG
# chain 2: MDGPAEPQIPGLWDTYEDDISEISQKLPGEYFRYKGVPFPVGLYSLESISLAENTQDVRDDDIFIITYPKSGTTWMIEIICLILKEGDPSWIRSVPIWERAPWCETIVGAFSLPDQYSPRLMSSHLPIQIFTKAFFSSKAKVIYMGRNPRDVVVSLYHYSKIAGQLKDPGTPDQFLRDFLKGEVQFGSWFDHIKGWLRMKGKDNFLFITYEELQQDLQGSVERICGFLGRPLGKEALGSVVAHSTFSAMKANTMSNYTLLPPSLLDHRRGAFLRKGVCGDWKNHFTVAQSEAFDRAYRKQMRGMPTFPWDEDPEEDGSPDPEPSPEPEPKPSLEPNTSLEREPRPNSSPSPSPGQASETPHPRPS
# Variants of: B1
# Test: co-IP (IP: SCD1, IB: SULT2B1), band quantification; HCT116 cells; parent: 1; read off a plot
row,Variant,ratio to parent
1,chain 1 S80F,~0.4
2,chain 1 S80E,~0.5
3,chain 1 S80R,~0.35
4,chain 1 H83M,~1.2
5,chain 1 F178G,~2.6
6,chain 1 F178A,~2.4
